From patent CN112500484A (MEDX TRANSLATIONAL MEDICINE CO LTD, dated 2021)

Molecular target: T1, 人TROP2蛋白C端合成多肽 Arg299-Leu323, 裸肽 (not coupled to KLH) (human)
T1 construct: also called 抗原多肽
T1 peptide: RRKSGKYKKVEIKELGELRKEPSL
Assay: indirect ELISA screen of transiently expressed antibodies

binding result: binds
B1: MJ1-1抗体 (rabbit anti-human TROP2 monoclonal antibody) (antibody, V domains shown)
VH: QSVEESGGRLVTPGTPLTLTCTVSGIDLSSDAIFWVRQAPGEGLKYIGFIHPAGVTYYAAWARGRFTISRTSTTVDLKMTRLTTEDTATYFCGRYFGYASIDIWGPGTLVTVSS
VL: AQVLTQTPSSTSAAVGGTVTINCQSSQNVYDKNQLSWFQQKPGQPPKLLIYKASTLASGVPSRFSGSGSGTQFTLTISGVECDDAATYYCAGVYTGNIYTFGGGTEVVVKG
notes: also called MJ1-1单克隆抗体; 抗TROP2抗体
